For 94 variants, protein stability index results are on record in the supplement of paper PMC10567573.

B1: VENTX (parent)
chain: VFQHHQYLSPLERKRLAREMQLSE
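Further: lentivirally expressed fusions sorted by FACS into six bins by GFP to DsRed ratio, PSI derived from sequencing read proportions per bin multiplied by bin number.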

The variants in this data set derive from B1. As to the kind of experiment: protein stability index of a GFP-peptide fusion (GPS, HEK-293T) (PSI 1-6); higher = more stable. As to conditions: c terminus: a fixed tail appended.
For the variant VFQHHTYLSPLERKRLAREMQLSE [Q6T], the protein stability index stood at 2.75.
Take VFQHHCYLSPLERKRLAREMQLSE [Q6C]: the protein stability index is 1.83.
On to VFQHHFYLSPLERKRLAREMQLSE [Q6F], for which the protein stability index came to 1.84.
In the case of VFQHHRYLSPLERKRLAREMQLSE [Q6R], the protein stability index came out at 2.47.
Regarding VFQHHDYLSPLERKRLAREMQLSE [Q6D], the protein stability index is 3.23.
With VFQHHVYLSPLERKRLAREMQLSE [Q6V], the protein stability index worked out at 2.42.
For VFQHHLYLSPLERKRLAREMQLSE [Q6L], the protein stability index was 2.02.
Turning to VFQHHYYLSPLERKRLAREMQLSE [Q6Y], the protein stability index stood at 2.09.
The value for VFQHHMYLSPLERKRLAREMQLSE [Q6M] was 2.56; that for VFQHHHYLSPLERKRLAREMQLSE [Q6H] was 3.06; that for VFQHHWYLSPLERKRLAREMQLSE [Q6W] was 2.17.
The value for VFQHHKYLSPLERKRLAREMQLSE [Q6K] was 2.69; that for VFQHHPYLSPLERKRLAREMQLSE [Q6P] was 2.09; that for VFQHHAYLSPLERKRLAREMQLSE [Q6A] was 2.75.
The value for VFQHHNYLSPLERKRLAREMQLSE [Q6N] was 3.05; that for VFQHHGYLSPLERKRLAREMQLSE [Q6G] was 2.51; that for VFQHHSYLSPLERKRLAREMQLSE [Q6S] was 2.3.
Take VFQHHIYLSPLERKRLAREMQLSE [Q6I]: the protein stability index is 2.17.
As to VFQHHEYLSPLERKRLAREMQLSE [Q6E], the protein stability index came out at 3.66.
The value for VFQHCQYLSPLERKRLAREMQLSE [H5C] was 2.17; that for VFQHTQYLSPLERKRLAREMQLSE [H5T] was 4.21; that for VFQHSQYLSPLERKRLAREMQLSE [H5S] was 2.63.
Consider VFQHIQYLSPLERKRLAREMQLSE [H5I], for which the protein stability index is 2.08.
In the case of VFQHKQYLSPLERKRLAREMQLSE [H5K], the protein stability index worked out at 2.94.
In the case of VFQHRQYLSPLERKRLAREMQLSE [H5R] it was 1.93.
In the case of VFQHEQYLSPLERKRLAREMQLSE [H5E] it was 3.71; in that of VFQHGQYLSPLERKRLAREMQLSE [H5G], 3.71.
VFQHFQYLSPLERKRLAREMQLSE [H5F]: the protein stability index was 2.96.
In the case of VFQHDQYLSPLERKRLAREMQLSE [H5D] it was 3.47; in that of VFQHNQYLSPLERKRLAREMQLSE [H5N], 2.83.
The value for VFQHVQYLSPLERKRLAREMQLSE [H5V] was 2.78; that for VFQHYQYLSPLERKRLAREMQLSE [H5Y] was 2.43.
The value for VFQHAQYLSPLERKRLAREMQLSE [H5A] was 2.5; that for VFQHQQYLSPLERKRLAREMQLSE [H5Q] was 3.01.
In the case of VFQHMQYLSPLERKRLAREMQLSE [H5M], the protein stability index was 3.19.
With VFQHWQYLSPLERKRLAREMQLSE [H5W], the protein stability index came out at 1.96.
The value for VFQHPQYLSPLERKRLAREMQLSE [H5P] was 3.21; that for VFQHLQYLSPLERKRLAREMQLSE [H5L] was 2.42.
The value for IFQHHQYLSPLERKRLAREMQLSE [V1I] was 2.36; that for NFQHHQYLSPLERKRLAREMQLSE [V1N] was 2.9; that for SFQHHQYLSPLERKRLAREMQLSE [V1S] was 3.1.
As for TFQHHQYLSPLERKRLAREMQLSE [V1T], the protein stability index turned out to be 2.88.
In the case of EFQHHQYLSPLERKRLAREMQLSE [V1E], the protein stability index was determined as 2.49.
In the case of GFQHHQYLSPLERKRLAREMQLSE [V1G] it was 2.09.
As for AFQHHQYLSPLERKRLAREMQLSE [V1A], the protein stability index was found to be 2.28.
Consider HFQHHQYLSPLERKRLAREMQLSE [V1H], for which the protein stability index was determined as 2.34.
Take KFQHHQYLSPLERKRLAREMQLSE [V1K]: the protein stability index was found to be 2.6.
For the variant CFQHHQYLSPLERKRLAREMQLSE [V1C], the protein stability index turned out to be 2.45.
Regarding LFQHHQYLSPLERKRLAREMQLSE [V1L], the protein stability index turned out to be 3.38.
Regarding RFQHHQYLSPLERKRLAREMQLSE [V1R], the protein stability index was found to be 2.42.
Consider DFQHHQYLSPLERKRLAREMQLSE [V1D], for which the protein stability index turned out to be 2.83.
The value for MFQHHQYLSPLERKRLAREMQLSE [V1M] was 2.38; that for YFQHHQYLSPLERKRLAREMQLSE [V1Y] was 2.36.
In the case of FFQHHQYLSPLERKRLAREMQLSE [V1F], the protein stability index was determined as 2.1.
Turning to PFQHHQYLSPLERKRLAREMQLSE [V1P], the protein stability index is 2.35.
In the case of QFQHHQYLSPLERKRLAREMQLSE [V1Q] it was 2.19; in that of WFQHHQYLSPLERKRLAREMQLSE [V1W], 1.92.
In the case of VQQHHQYLSPLERKRLAREMQLSE [F2Q] it was 4; in that of VRQHHQYLSPLERKRLAREMQLSE [F2R], 3.02; in that of VDQHHQYLSPLERKRLAREMQLSE [F2D], 4.44.
With VTQHHQYLSPLERKRLAREMQLSE [F2T], the protein stability index turned out to be 3.05.
Regarding VLQHHQYLSPLERKRLAREMQLSE [F2L], the protein stability index worked out at 3.22.
For the variant VGQHHQYLSPLERKRLAREMQLSE [F2G], the protein stability index amounted to 3.57.
The value for VMQHHQYLSPLERKRLAREMQLSE [F2M] was 3.1; that for VNQHHQYLSPLERKRLAREMQLSE [F2N] was 2.97.
Regarding VYQHHQYLSPLERKRLAREMQLSE [F2Y], the protein stability index is 3.01.
Consider VSQHHQYLSPLERKRLAREMQLSE [F2S], for which the protein stability index was found to be 3.91.
Turning to VCQHHQYLSPLERKRLAREMQLSE [F2C], the protein stability index was 3.08.
In the case of VPQHHQYLSPLERKRLAREMQLSE [F2P] it was 4.18.
The value for VAQHHQYLSPLERKRLAREMQLSE [F2A] was 2.11; that for VIQHHQYLSPLERKRLAREMQLSE [F2I] was 3.12; that for VWQHHQYLSPLERKRLAREMQLSE [F2W] was 2.42.
VKQHHQYLSPLERKRLAREMQLSE [F2K]: the protein stability index is 3.61.
In the case of VVQHHQYLSPLERKRLAREMQLSE [F2V] it was 2.55; in that of VHQHHQYLSPLERKRLAREMQLSE [F2H], 3.38; in that of VEQHHQYLSPLERKRLAREMQLSE [F2E], 4.48.
For VFQWHQYLSPLERKRLAREMQLSE [H4W], the protein stability index came out at 2.03.
In the case of VFQIHQYLSPLERKRLAREMQLSE [H4I], the protein stability index was 2.43.
In the case of VFQQHQYLSPLERKRLAREMQLSE [H4Q] it was 3.5.
For the variant VFQFHQYLSPLERKRLAREMQLSE [H4F], the protein stability index was determined as 1.69.
In the case of VFQDHQYLSPLERKRLAREMQLSE [H4D] it was 3.68; in that of VFQRHQYLSPLERKRLAREMQLSE [H4R], 2.37.
Take VFQKHQYLSPLERKRLAREMQLSE [H4K]: the protein stability index was 2.5.
Take VFQMHQYLSPLERKRLAREMQLSE [H4M]: the protein stability index amounted to 2.31.
In the case of VFQCHQYLSPLERKRLAREMQLSE [H4C] it was 2.56.
In the case of VFQEHQYLSPLERKRLAREMQLSE [H4E], the protein stability index was found to be 3.52.
In the case of VFQYHQYLSPLERKRLAREMQLSE [H4Y] it was 2.21.
In the case of VFQPHQYLSPLERKRLAREMQLSE [H4P] it was 3.27; in that of VFQVHQYLSPLERKRLAREMQLSE [H4V], 2.7; in that of VFQLHQYLSPLERKRLAREMQLSE [H4L], 2.89.
The value for VFQGHQYLSPLERKRLAREMQLSE [H4G] was 3.26; that for VFQTHQYLSPLERKRLAREMQLSE [H4T] was 3.06; that for VFQNHQYLSPLERKRLAREMQLSE [H4N] was 2.85.
In the case of VFQSHQYLSPLERKRLAREMQLSE [H4S], the protein stability index stood at 2.91.
